Test results from patent US20160024210A1 (AstraZeneca / MedImmune, published 2016).
Positions count from the first letter of the chain named.

How the values were obtained:
[1] = biological target: T1, human H7CR (B7-H7 counter-receptor) (human, UniProt Q96BF3 23-282); assay: binding to human H7CR as endogenously expressed on the surface of a cell
T1 construct: Used for H7CR on CHO.hH7CR transfectants, human T cells and tonsil tissue; also called B7-H7CR; CD28H
T1 sequence: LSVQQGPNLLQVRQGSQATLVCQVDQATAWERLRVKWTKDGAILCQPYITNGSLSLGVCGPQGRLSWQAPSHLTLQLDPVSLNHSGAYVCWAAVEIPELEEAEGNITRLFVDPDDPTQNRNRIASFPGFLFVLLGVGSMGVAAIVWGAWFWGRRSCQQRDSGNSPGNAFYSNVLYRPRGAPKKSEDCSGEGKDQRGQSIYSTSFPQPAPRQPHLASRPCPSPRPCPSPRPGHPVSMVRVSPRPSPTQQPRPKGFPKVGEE

[2] = biological target: T2, H7CR-GFP fusion protein on transfected CHO cells (Homo sapiens (Human), UniProt Q96BF3 23-282); assay: flow cytometry, 5 µg/ml variant on H7CR-GFP transfected CHO cells, anti-hIg PE secondary antibody [row HC1-3, column LC1-1]
T2 construct: not shown: GFP part
T2 sequence: T1 sequence
Procedure: (§1) 5 μg/ml antibodies from thirty-six variants were incubated with H7CR-GFP fusion protein transfected CHO cells for 30 min at room temperature. Cells were then washed twice with 2 ml flow cytometry buffer, and resuspended in 100 μl flow cytometry buffer. 1 μl anti-hIg PE secondary antibody (Biolegend) was added and incubated with the cells for 15 mins Samples were then washed and resuspended in 100 μl flow cytometry buffer. Flow Cytometry data was acquired using BD Canto (BD Biosciences) in plate format and analyzed by FlowJo software.

[3] = biological target: T2, H7CR-GFP fusion protein on transfected …; assay: flow cytometry, 5 µg/ml variant on H7CR-GFP transfected CHO cells, anti-hIg PE secondary antibody [row HC2-2, column LC1-2]
Procedure: as §1

[4] = biological target: T2, H7CR-GFP fusion protein on transfected …; assay: flow cytometry, 5 µg/ml variant on H7CR-GFP transfected CHO cells, anti-hIg PE secondary antibody [row HC2-1, column LC1-1]
Procedure: as §1

[5] = biological target: T2, H7CR-GFP fusion protein on transfected …; assay: flow cytometry, 5 µg/ml variant on H7CR-GFP transfected CHO cells, anti-hIg PE secondary antibody [row HC2-1, column LC1-3]
Procedure: as §1

[6] = biological target: T2, H7CR-GFP fusion protein on transfected …; assay: flow cytometry, 5 µg/ml variant on H7CR-GFP transfected CHO cells, anti-hIg PE secondary antibody [row HC1-3, column LC2-1]
Procedure: as §1

[7] = biological target: T2, H7CR-GFP fusion protein on transfected …; assay: flow cytometry, 5 µg/ml variant on H7CR-GFP transfected CHO cells, anti-hIg PE secondary antibody [row HC1-2, column LC2-3]
Procedure: as §1

[8] = biological target: T2, H7CR-GFP fusion protein on transfected …; assay: flow cytometry, 5 µg/ml variant on H7CR-GFP transfected CHO cells, anti-hIg PE secondary antibody [row HC2-2, column LC1-3]
Procedure: as §1

[9] = biological target: T2, H7CR-GFP fusion protein on transfected …; assay: flow cytometry, 5 µg/ml variant on H7CR-GFP transfected CHO cells, anti-hIg PE secondary antibody [row HC2-2, column LC1-1]
Procedure: as §1

[10] = biological target: T2, H7CR-GFP fusion protein on transfected …; assay: flow cytometry, 5 µg/ml variant on H7CR-GFP transfected CHO cells, anti-hIg PE secondary antibody [row HC1-3, column LC2-3]
Procedure: as §1

[11] = biological target: T2, H7CR-GFP fusion protein on transfected …; assay: flow cytometry, 5 µg/ml variant on H7CR-GFP transfected CHO cells, anti-hIg PE secondary antibody [row HC2-1, column LC1-2]
Procedure: as §1

[12] = biological target: T2, H7CR-GFP fusion protein on transfected …; assay: flow cytometry, 5 µg/ml variant on H7CR-GFP transfected CHO cells, anti-hIg PE secondary antibody [row HC1-3, column LC1-2]
Procedure: as §1

[13] = biological target: T2, H7CR-GFP fusion protein on transfected …; assay: flow cytometry, 5 µg/ml variant on H7CR-GFP transfected CHO cells, anti-hIg PE secondary antibody [row HC1-3, column LC2-2]
Procedure: as §1

[14] = biological target: T2, H7CR-GFP fusion protein on transfected …; assay: flow cytometry, 5 µg/ml variant on H7CR-GFP transfected CHO cells, anti-hIg PE secondary antibody [row HC1-3, column LC1-3]
Procedure: as §1

[15] = biological target: T2, H7CR-GFP fusion protein on transfected …; assay: flow cytometry, 5 µg/ml variant on H7CR-GFP transfected CHO cells, anti-hIg PE secondary antibody [row HC2-1, column LC2-1]
Procedure: as §1

[16] = biological target: T2, H7CR-GFP fusion protein on transfected …; assay: flow cytometry, 5 µg/ml variant on H7CR-GFP transfected CHO cells, anti-hIg PE secondary antibody [row HC2-1, column LC2-3]
Procedure: as §1

[17] = biological target: T2, H7CR-GFP fusion protein on transfected …; assay: flow cytometry, 5 µg/ml variant on H7CR-GFP transfected CHO cells, anti-hIg PE secondary antibody [row HC2-1, column LC2-2]
Procedure: as §1

[18] = biological target: T2, H7CR-GFP fusion protein on transfected …; assay: flow cytometry, 5 µg/ml variant on H7CR-GFP transfected CHO cells, anti-hIg PE secondary antibody [row HC2-2, column LC2-1]
Procedure: as §1

B1: 4.5 humanized variant 13 (HC1-3 / LC1-1) (antibody, V domains shown)
VH: QVQLQESGPGLVKPSQTLSLTCTVSGFSITTGGYYWNWIRQFPGKKLEWMGYIYTSGRTSYNPSLKSRVTISRDTSKNQFSLKLSSVTAADTAVYYCADMADKGGWFAYWGQGTLVTVSS
VL: DIVMTQSPDSLAVSLGERATINCKSSQSLFSSNTKRNYLAWYQQKPGQPPKLLIYHASTRESGVPDRFSGSGSGTDFTLTISSLQAEDVAVYYCQQHYETPLTFGQGTRLEIK
notes: Variable domains only; detected with anti-hIg secondary; also called VH1C / VL1A
[1]
  binding result: binds
[2]
  binding result: binds

B2: 4.5 humanized variant 26 (HC2-2 / LC1-2) (antibody, V domains shown)
VH: QITLKESGPTLVKPTQTLTLTCTVSGFSITTGGYYWNWIRQPPGKKLEWLALIYTSGRTSYNPSLKSRLTITKDTSKNQVVLTMTNMDPVDTATYYCADMADKGGWFAYWGQGTLVTVSS
VL: B1 VL with A40N, E61L, V91D, Y93F, Q106D
notes: Variable domains only; detected with anti-hIg secondary; also called VH2B / VL1B
[1]
  binding result: binds
[3]
  binding result: binds

B3: 4.5 humanized variant 19 (HC2-1 / LC1-1) (antibody, V domains shown)
VH: B2 VH with V24F, W36V, N37G, K46A, S60R, N62S
VL: B1 VL
notes: Variable domains only; detected with anti-hIg secondary; also called VH2A / VL1A
[1]
  binding result: binds
[4]
  binding result: binds

B4: 4.5 humanized variant 21 (HC2-1 / LC1-3) (antibody, V domains shown)
VH: B2 VH with V24F, W36V, N37G, K46A, S60R, N62S
VL: B1 VL with K24L, A40N, P49S, E61L, V91D, Y93F, Q106D
notes: Variable domains only; detected with anti-hIg secondary; also called VH2A / VL1C
[1]
  binding result: binds
[5]
  binding result: binds

B5: 4.5 humanized variant 16 (HC1-3 / LC2-1) (antibody, V domains shown)
VH: B1 VH
VL: DIVMTQTPLSLPVTPGEPASISCRSSQSLFSSNTKRNYLDWYLQKPGQSPQLLIYHASYRASGVPDRFSGSGSGTDFTLKISRVEAEDVGVYYCQQHYETPLTFGQGTRLEIK
notes: Variable domains only; detected with anti-hIg secondary; also called VH1C / VL2A
[1]
  binding result: binds
[6]
  binding result: binds

B6: 4.5 humanized variant 12 (HC1-2 / LC2-3) (antibody, V domains shown)
VH: B1 VH with F42H, M50I
VL: B5 VL with L9S, R24L, D40N, Q51K, Y59T, A61L, V91D, Y93F, Q106D
notes: Variable domains only; detected with anti-hIg secondary; also called VH1B / VL2C
[1]
  binding result: binds
[7]
  binding result: binds

B7: 4.5 humanized variant 27 (HC2-2 / LC1-3) (antibody, V domains shown)
VH: B2 VH
VL: B1 VL with K24L, A40N, P49S, E61L, V91D, Y93F, Q106D
notes: Variable domains only; detected with anti-hIg secondary; also called VH2B / VL1C
[1]
  binding result: binds
[8]
  binding result: binds

B8: 4.5 humanized variant 25 (HC2-2 / LC1-1) (antibody, V domains shown)
VH: B2 VH
VL: B1 VL
notes: Variable domains only; detected with anti-hIg secondary; also called VH2B / VL1A
[1]
  binding result: binds
[9]
  binding result: binds

B9: 4.5 humanized variant 18 (HC1-3 / LC2-3) (antibody, V domains shown)
VH: B1 VH
VL: B5 VL with L9S, R24L, D40N, Q51K, Y59T, A61L, V91D, Y93F, Q106D
notes: Variable domains only; detected with anti-hIg secondary; also called VH1C / VL2C
[1]
  binding result: binds
[10]
  binding result: binds

B10: 4.5 humanized variant 20 (HC2-1 / LC1-2) (antibody, V domains shown)
VH: B2 VH with V24F, W36V, N37G, K46A, S60R, N62S
VL: B1 VL with A40N, E61L, V91D, Y93F, Q106D
notes: Variable domains only; detected with anti-hIg secondary; also called VH2A / VL1B
[1]
  binding result: binds
[11]
  binding result: binds

B11: 4.5 humanized variant 14 (HC1-3 / LC1-2) (antibody, V domains shown)
VH: B1 VH
VL: B1 VL with A40N, E61L, V91D, Y93F, Q106D
notes: Variable domains only; detected with anti-hIg secondary; also called VH1C / VL1B
[1]
  binding result: binds
[12]
  binding result: binds

B12: 4.5 humanized variant 17 (HC1-3 / LC2-2) (antibody, V domains shown)
VH: B1 VH
VL: B5 VL with D40N, Q51K, Y59T, A61L, V91D, Y93F, Q106D
notes: Variable domains only; detected with anti-hIg secondary; also called VH1C / VL2B
[1]
  binding result: binds
[13]
  binding result: binds

B13: 4.5 humanized variant 15 (HC1-3 / LC1-3) (antibody, V domains shown)
VH: B1 VH
VL: B1 VL with K24L, A40N, P49S, E61L, V91D, Y93F, Q106D
notes: Variable domains only; detected with anti-hIg secondary; also called VH1C / VL1C
[1]
  binding result: binds
[14]
  binding result: binds

B14: 4.5 humanized variant 22 (HC2-1 / LC2-1) (antibody, V domains shown)
VH: B2 VH with V24F, W36V, N37G, K46A, S60R, N62S
VL: B5 VL
notes: Variable domains only; detected with anti-hIg secondary; also called VH2A / VL2A
[1]
  binding result: binds
[15]
  binding result: binds

B15: 4.5 humanized variant 24 (HC2-1 / LC2-3) (antibody, V domains shown)
VH: B2 VH with V24F, W36V, N37G, K46A, S60R, N62S
VL: B5 VL with L9S, R24L, D40N, Q51K, Y59T, A61L, V91D, Y93F, Q106D
notes: Variable domains only; detected with anti-hIg secondary; also called VH2A / VL2C
[1]
  binding result: binds
[16]
  binding result: binds

B16: 4.5 humanized variant 23 (HC2-1 / LC2-2) (antibody, V domains shown)
VH: B2 VH with V24F, W36V, N37G, K46A, S60R, N62S
VL: B5 VL with D40N, Q51K, Y59T, A61L, V91D, Y93F, Q106D
notes: Variable domains only; detected with anti-hIg secondary; also called VH2A / VL2B
[1]
  binding result: binds
[17]
  binding result: binds

B17: 4.5 humanized variant 28 (HC2-2 / LC2-1) (antibody, V domains shown)
VH: B2 VH
VL: B5 VL
notes: Variable domains only; detected with anti-hIg secondary; also called VH2B / VL2A
[1]
  binding result: binds
[18]
  binding result: binds
